From US20240343803A1 (SHANDONG SIMCERE BIOPHARMACEUTICAL, published 2024)

T1: human PVRIG-his (AcroBiosystems, Cat NO. PVG-H52H4) (human, UniProt Q6DKI7 41-171, limits assumed)
T1 construct: treated as the same protein; also called human PVRIG-His protein; Human PVRIG-His, Acro C227P1-9ARF1-T4
T1 sequence (looked up): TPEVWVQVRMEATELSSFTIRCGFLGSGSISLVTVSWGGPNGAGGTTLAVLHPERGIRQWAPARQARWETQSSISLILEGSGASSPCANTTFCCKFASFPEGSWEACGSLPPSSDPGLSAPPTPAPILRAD

T2: human PVRIG-mFc protein (Acro, PVG-H5253) (human, UniProt Q6DKI7 41-171, limits assumed)
T2 construct: bought reagent; also called PVRIG-ECD-mFc
T2 sequence (looked up): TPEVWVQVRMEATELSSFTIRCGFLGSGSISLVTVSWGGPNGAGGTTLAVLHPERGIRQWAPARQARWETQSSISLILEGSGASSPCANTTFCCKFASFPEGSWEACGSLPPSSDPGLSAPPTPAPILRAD

T3: human PVRIG-his (AcroBiosystems, Cat NO. PVG-H52H4) (human, UniProt Q6DKI7 41-171, limits assumed)
T3 construct: also called human PVRIG protein
T3 sequence (looked up): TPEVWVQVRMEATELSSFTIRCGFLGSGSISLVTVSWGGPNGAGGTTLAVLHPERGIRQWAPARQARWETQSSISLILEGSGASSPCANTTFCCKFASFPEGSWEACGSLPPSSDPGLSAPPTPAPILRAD

T4: Fusion protein of extracellular domain of human TIGIT and mouse IgG2a Fc fragment (human TIGIT ECD-mFc) (human)
T4 construct: The entry includes the signal peptide (limits not recoverable) and the mouse IgG2a Fc
T4 chain: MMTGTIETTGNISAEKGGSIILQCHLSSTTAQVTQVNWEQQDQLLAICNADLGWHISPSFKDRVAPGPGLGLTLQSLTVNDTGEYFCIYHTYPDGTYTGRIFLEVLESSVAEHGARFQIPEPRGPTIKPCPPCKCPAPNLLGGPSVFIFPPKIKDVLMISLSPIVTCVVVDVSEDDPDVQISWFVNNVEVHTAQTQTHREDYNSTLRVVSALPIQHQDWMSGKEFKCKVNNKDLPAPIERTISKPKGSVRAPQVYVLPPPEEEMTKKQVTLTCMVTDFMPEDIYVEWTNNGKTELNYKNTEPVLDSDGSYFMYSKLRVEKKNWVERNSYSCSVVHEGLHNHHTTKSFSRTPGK


Key:
[1] = target: T1, human PVRIG-his (AcroBiosystems, Cat …); experiment: competition ELISA on coated human PVRIG-his; blocked ligand human PVRL2-mFc
In short: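 Wells were coated with 0.5 μg/mL human PVRIG-his. Bound ligand was read by HRP/TMB absorbance, and IC50 came from a four-parameter logistic fit of OD against antibody concentration.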

[2] = target: T2, human PVRIG-mFc protein (Acro, …); experiment: competition FACS; blocked: human PVRIG-mFc binding to CHO-K1-CD112 cells
In short: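 Antibody dilutions premixed with human PVRIG-mFc (working solution 1 μg/mL, four-fold concentration) for 30 min at 4° C, then incubated with CHO-K1-CD112 cells 30 min at 4° C. Bound PVRIG-mFc detected by PE anti-mouse IgG Fc flow cytometry; IC50 and AUC from four-parameter fit of MFI versus antibody concentration.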

[3] = target: T3, human PVRIG-his (AcroBiosystems, Cat …); experiment: competition ELISA, PVRIG-His coated, competitor human PVRL2-mFc
Description: The ELISA plate was pre-coated with 100 μL/well of 0.5 μg/mL human PVRIG-his protein (AcroBiosystems, Cat NO. PVG-H52H4). The tested anti-PVRIG antibodies were diluted from the highest concentration of 16 nM (two-fold concentration). The diluted antibodies were mixed with 18 ng/ml human PVRL2-mFc (AcroBiosystems, Cat NO. CD2-H5257) in equal volume, added into the plate (100 μL/well), and incubated with shaking at room temperature for 2.0 hours. […] A HRP substrate, TMB (Thermo, Cat NO. 34029) was added into wells after washing the plate again for color development. After adding a termination solution to terminate the reaction, the absorbance value was read by a microplate reader (MD i3×). An inhibiting curve was drawn with concentration of antibodies as the abscissa and the corresponding OD value as the ordinate. The IC50 value was calculated by using a Four Parameter Logistic Fit (GraphPadPrism9). The smaller the IC50 value, the stronger the ability of the antibodies inhibits the binding between PVRIG and PVRL2. The positive and negative controls are the same as in Example 8.

[4] = target: T4, Fusion protein of extracellular domain …; experiment: ELISA, human TIGIT ECD-mFc

Binder | IC50 [3] [nM] | EC50 [4] [nM] | further results
SRF813-hIgG1 (antibody, V domains shown, human IgG1 format by its name) VH: QVQLVQSGAEVKKPGSSVKVSCKASGGTFSSAAISWVRQAPGQGLEWMGNIIPIVGIANYAQKFQGRVTITADESTSTAYMELSSLRSEDTAVYYCARDTGRGYTRHFWFDPWGQGTLVTVSS VL: DIQMTQSPSSLSASVGDRVTITCRASQSISSYLNWYQQKPGKAPKLLIYAASSLQSGVPSRFSGSGSGTDFTLTISSLQPEDFATYYCQQSDILYTFGGGTKVEIK | – | – | IC50 (read off the curve) [1]: ~0.8 nM; IC50 (read off the curve) [2]: ~1 nM
PVRIG-A105 (VHH, tested as VHH-hinge-CH2-CH3 (human IgG1-Fc); not shown: human IgG1 hinge-CH2-CH3) VHH: EVQLVESGGGLVQAGGSLRLSCAASGRTFDRHTMTWFRQAPGKEREFVATASRIPGDTYYSHSVKGRFTISRDNAKNTVYLQLNNLKPEDTAVYYCAATSAYCSEVDCYEKGSWYDNWGQGIQVTVSS | – | – | IC50 (read off the curve) [1]: ~0.9 nM; IC50 (read off the curve) [2]: ~1 nM
PVRIG-A105 (Fc fusion, heavy chain antibody VHH-hinge-CH2-CH3, human IgG1 constant part; not shown: human IgG1 hinge-CH2-CH3) EVQLVESGGGLVQAGGSLRLSCAASGRTFDRHTMTWFRQAPGKEREFVATASRIPGDTYYSHSVKGRFTISRDNAKNTVYLQLNNLKPEDTAVYYCAATSAYCSEVDCYEKGSWYDNWGQGIQVTVSS | 0.0571 | – | –
TIGIT-070-H1L1 (antibody, V domains shown, Humanized anti-TIGIT antibody) VH: EVQLVQSGAEVKKPGASVKVSCKASGYTFTNYYMHWVRQAPGQRLEWMGRIDPDSGGSKYNEKFKSRVTITVDKSASTAYMELSSLRSEDTAVYYCAREGHYGFYSDYWGQGTTVTVSS VL: DIQMTQSPSSLSASVGDRVTITCRVSENIYSYLAWYQQKPGKSPKLLIYNAKTLAEGVPSRFSGSGSGTDFTLTISSLQPEDFATYYCQHHYGNPLTFGPGTKVDIK | – | 0.0284 | –
PVRIG-A50 (Fc fusion, heavy chain antibody VHH-hinge-CH2-CH3, human IgG1 constant part; also called PVRIG-50; not shown: human IgG1 hinge-CH2-CH3) EVQLVESGGGLVQPGGSLRLSCAASGFTFSYYDMSWVRQAPGKGLEWVSTINSNGGRTSYVDSVKGRFTISRDNTKNTLYLQMNSLKPEDTAVYYCVEGDPHNFGLENLSLRDFGSWGQGTQVTVSS | 0.196 | – | –
PVRIG-A118 (Fc fusion, heavy chain antibody VHH-hinge-CH2-CH3, human IgG1 constant part; not shown: human IgG1 hinge-CH2-CH3) QVQLVESGGGLVQAGGSLRLSCAASETYFDLYVMGWYRQAPGKDRELVATITYTGSIKIVDSVKDRFTISRGDAKNTVSLQMSSLKPEDTAVYFCNADPSGLGRKVYWGQGTQVTVSS | 0.0513 | – | –
TIGIT-002-H4L3 (antibody, V domains shown, Humanized anti-TIGIT antibody) VH: EVQLQESGPGLVKPSETLSLTCAVSGYSITSDSWNWIRQPPGKKLEYIGYISYSGNTYYNPSLKSRVTISRDTSKNQFSLKLSSVTAADTAVYYCARLDFSNYGGAVDYWGQGTTVTVSS VL: DIVMTQSPDSLAVSLGERATINCKASQNVRTAVAWYQQKPGQSPKLMIYSASYRYTGVPDRFSGSGSGTDFTLTISSLQAEDVAVYYCQQYYTTPWTFGGGTKVEIK | – | 0.037 | –
TIGIT-006-H5L3 (antibody, V domains shown, Humanized anti-TIGIT antibody) VH: EVQLQESGPGLVKPSETLSLTCAVSGYSMTSDYWNWIRQPPGKKLEYIGYISYSGRTYYNPSLKSRVTISRDTSKNQFSLKLSSVTAADTAVYYCARGDYSNYGGAMYDWGQGTTVTVSS VL: DIVMTQSPDSLAVSLGERATINCRASQGVSTTIAWYQQKPGQSPKLLIYSASYRYTGVPRFSGSGSGTDFTLTISSLQAEDVAVYYCQQYYSSPFTFGGGTKVEIK | – | 0.0319 | –
TIGIT-005-H2L1d (antibody, V domains shown, Humanized anti-TIGIT antibody with NG-site mutation in VL) VH: EVQLVQSGAEVKKPGASVKVSCKASGYAFTNYLIEWVRQAPGQRLEWMGVINPGSGGTNYKEKFKGRVTITADKSSSTAYMELSSLRSEDTAVYYCARGEYFFFDYWGQGTTVTVSS VL: DIVMTQSPDSLAVSLGERATINCKASQHVSNAVAWYQHKPGQSPKLLIYSASYRYTGVPDRFSGSGSGTDFTLTISSLQAEDVAVYYCQQHYNTPHTFGGGTKVEIK | – | 0.0311 | –
